Measured values taken from the supplement of paper PMC10567573.

B1: RHOBTB3 (parent)
chain: QLQSMPSRELASMNLDIVDLLKKA

Variants of: B1
Experiment: protein stability index of a GFP-peptide fusion (GPS, HEK-293T) (PSI 1-6); higher = more stable
Conditions: c terminus: a fixed tail appended
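Also: lentivirally expressed fusions sorted by FACS into six bins by GFP to DsRed ratio, PSI derived from sequencing read proportions per bin multiplied by bin number.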

Protein stability index: each site, then its substitutions
I17: C 3.87 | H 3.94 | D 4.23 | G 3.46 | V 3.89 | N 3.88 | L 3.34 | W 3.45 | T 3.58 | A 3.63 | K 3.23 | Y 3.74 | P 3.39 | Q 4.55 | R 3.4 | M 3.39 | F 3.63 | S 4.37
K23: A 2.92
M5: L 3.88 | I 2.95 | R 3.46 | E 3.54 | H 3.43 | P 3.54 | G 2.58 | W 2.07 | A 3.04 | T 3.94 | V 3.32 | Y 2.01 | S 3.76 | K 4.06 | N 2.78 | C 3.23 | Q 3.69 | F 3.33 | D 3.78
V18: W 2.61 | K 3.21 | A 4.01 | F 2.39 | C 3.69 | R 2.73 | N 3.9 | Y 2.6 | L 3.37 | D 3.96 | Q 3.89 | G 3.65 | E 4.19 | T 3.77 | P 3.21 | I 3.28 | M 3.41 | S 4.08 | H 3.5
A11: T 3.28 | R 2.81 | M 3.34 | F 2.76 | Q 3.37 | W 2.79 | E 3.73 | D 3.75 | I 2.87 | P 3.27 | Y 2.86 | L 3.11 | N 3.29 | K 2.72 | H 3.21 | G 3.19 | S 3.54 | V 3.27 | C 3.17
N14: D 3.92 | W 2.37 | A 2.87 | R 2.58 | L 2.6 | T 3.27 | E 3.62 | Y 2.68 | K 3.75 | Q 3.3 | V 1.9 | S 3.31 | C 2.16 | F 1.79 | H 3.01 | I 2.61 | G 3.68 | M 2.63 | P 3.78
D16: S 3.23 | V 2.22 | L 2.63 | M 2.53 | F 2.09 | K 2.91 | A 2.15 | Q 3.57 | R 2.5 | N 2.88 | Y 2.62 | P 2.75 | E 3.63 | T 3.05 | C 3.25 | G 3.63 | H 2.76 | I 2.67
R8: Y 2.66 | D 4.11 | M 3.2 | Q 3.85 | E 4.28 | S 3.99 | A 4.22 | H 3.94 | P 3.22 | V 3.83 | W 2.58 | C 3.85 | K 3.38 | F 2.65 | G 3.71 | I 2.33 | L 2.35
M13: G 3.76 | K 3.8 | V 3.7 | C 3.74 | R 3.61 | T 3.38 | E 4.19 | S 3.35 | D 3.96 | H 3.59 | P 4.01 | I 2.39 | F 2.97 | N 4.17 | W 2.88 | A 4 | L 3.52 | Q 3.79 | Y 3.17
E9: C 2.7 | Q 2.7 | S 3.6 | Y 3.14 | P 2.78 | M 2.31 | I 2.44 | L 2.7 | G 2.9 | A 3.1 | H 2.99 | K 2.27 | T 3.61 | D 2.63 | N 3.4 | V 3.04 | F 2.92 | R 2.15
P6: G 2.91 | F 1.93 | N 3.55 | T 3.46 | Y 1.88 | A 3.19 | H 2.05 | W 1.85 | K 3.77 | C 2.5 | R 3.25 | L 2.2 | I 2.03 | Q 3 | V 2.14 | D 3.38
L20: Q 3.9 | F 3.42 | V 2.9 | P 4.31 | G 4.62 | N 3.71 | T 3.96 | H 3.63 | S 4.06 | E 4.84 | C 3.86 | I 3.42 | M 3.75 | A 3.52 | Y 3.95 | W 3.51 | D 4.68 | K 4.33 | R 3.94
L10: D 4.09 | W 3.25 | T 4.32 | E 3.97 | H 3.24 | Q 3.63 | F 3.41 | M 3.58 | S 4.49 | I 2.95 | K 3.02 | N 3.33 | P 3.83 | C 3.62 | G 2.62 | A 4.18 | R 3.71 | V 3.6 | Y 3.88
K22: A 3.01 | H 3.67 | R 3.21 | D 4.32 | C 2.76 | N 4.23 | T 3.74 | Q 3.93 | Y 2.61 | I 2.32 | M 2.9 | V 2.15 | S 3.55 | F 2.29 | L 2.07 | W 2.04 | E 4.71 | G 3.75 | P 3.57
S12: Q 4.1 | A 3.28 | Y 2.95 | P 4.11 | I 3.02 | H 3.06 | R 2.13 | M 3.24 | K 3.63 | F 3.22 | G 3.9 | W 2.5 | E 4.26 | D 3.68 | T 3.75 | L 3.54 | V 3.95 | C 3.33 | N 3.06
S7: I 2.42 | A 3.59 | Y 3 | Q 3.77 | C 2.69 | G 2.66 | R 4.13 | W 5 | M 2.51 | K 2.97 | P 4.46 | L 2.56 | E 3.48 | D 3.9 | N 2.98 | T 4.35 | H 4.55
L15: D 3.23 | S 3.79 | T 4.17 | H 3.98 | W 2.88 | Y 3.87 | V 3.35 | E 3.94 | Q 3.72 | C 4.27 | R 3.58 | N 3.45 | A 3.67 | M 3.86 | I 3.66 | G 3.99 | K 4.45 | P 4.48 | F 3.44
S4: Y 3.75 | W 3.6
D19: Q 3.58 | F 2.01 | S 3.45 | T 2.85 | G 2.52 | M 2.09 | H 2.93 | E 3.37 | K 3.08 | L 1.48 | R 2.99 | N 3.15 | W 2.16 | V 2.16 | Y 2.28 | A 3 | C 2.96 | P 2.83 | I 1.86
L21: V 4.12 | T 3.74 | I 3.56 | Y 2.96 | F 3 | S 4.12 | R 3.93 | C 3.47 | Q 3.87 | D 4.67 | K 3.01 | W 3.35 | H 4.33 | P 3.84 | G 3.91 | M 4.02 | A 3.47 | N 3.27
